{"source": "the Human Domainome abundance scans (Beltran et al. 2025)", "parents": {"B1": {"name": "Dynamin-binding protein, residues 146 to 206; numbered along this chain, Q6XZF7 (parent)", "chain": "SMGQARALMGLSAQLDEELDFREGDVITIIGVPEPGWFEGELEGRRGIFPEGFVELLGPLR"}}, "note": "± gives the uncertainty stated by the source."}
{"variants_of": "B1", "test": "abundance fitness (aPCA) (normalised: wild type 0, dead -1); higher = more abundant; growth selection in yeast, the domain comes from the species named", "conditions": "Homo sapiens"}
{"variant": "SMGQARALMGLSAQLDEELDFREGDVITIIGVPEPGWFEGELEGRRKIFPEGFVELLGPLR", "abundance fitness": "-0.839 ± 0.45"}
{"variant": "SMGQARALMGLSAQLDEELDFREGDVITIIGVPEPGWFEGELEHRRGIFPEGFVELLGPLR", "abundance fitness": "-0.665 ± 0.1"}
{"variant": "SMGQARALMGLSAQLDEELDFREGDVITIIGVPEPGWFRGELEGRRGIFPEGFVELLGPLR", "abundance fitness": "-0.141 ± 0.051"}
{"variant": "SMGQARALMGLSAQLDEELDFREGDVITIIGVPEPGWFEGELEGRRGPFPEGFVELLGPLR", "abundance fitness": "-0.651 ± 0.12"}
{"variant": "SMGQARALMGLSAQLDEELDFREGDVITIIGVPEPGWFEGELEGRRGIFPEAFVELLGPLR", "abundance fitness": "0.111 ± 0.11"}
{"variant": "SMGQARALMGLSAQLDEELDFREGDVITIIGVPSPGWFEGELEGRRGIFPEGFVELLGPLR", "abundance fitness": "-0.129 ± 0.12"}
{"variant": "SMGQARALMGLSAQLDEELDFREGDVITIIGVPEPGWFEGELEGRRGIFPEGFVELLGPYR", "abundance fitness": "-0.862 ± 0.39"}
{"variant": "SMGQARALMGLSAQLDEELDFQEGDVITIIGVPEPGWFEGELEGRRGIFPEGFVELLGPLR", "abundance fitness": "-0.027 ± 0.089"}
{"variant": "SMGQARALMGLSAQLDEELDFREGDVITIIGVPEPGWFEGELEGRRGIFPEGFVELLGPMR", "abundance fitness": "-0.062 ± 0.12"}
{"variant": "SMGQARALMGLSAQLDEELDFREGDVITIIGVPEPGGFEGELEGRRGIFPEGFVELLGPLR", "abundance fitness": "-0.652 ± 0.053"}
{"variant": "SMGQARALMGLSAQLDEELDFREGDVITIIGVPEPGWFEGALEGRRGIFPEGFVELLGPLR", "abundance fitness": "-0.32 ± 0.059"}
{"variant": "SMGQARALMGLSAQLDEELDFREGDVITIIGVPEPGWFEGELEGRRGIDPEGFVELLGPLR", "abundance fitness": "-0.74 ± 0.097"}
{"variant": "SMGQARALMGLSAQLDEELDFREGDVITIIGVPEPGWFEGELEGRRGIFPEGFVELLGPLE", "abundance fitness": "-0.018 ± 0.15"}
{"variant": "SMGQARALMGLMAQLDEELDFREGDVITIIGVPEPGWFEGELEGRRGIFPEGFVELLGPLR", "abundance fitness": "-0.083 ± 0.23"}
{"variant": "SMGQDRALMGLSAQLDEELDFREGDVITIIGVPEPGWFEGELEGRRGIFPEGFVELLGPLR", "abundance fitness": "-0.706 ± 0.18"}
{"variant": "SMGQARALMGLSARLDEELDFREGDVITIIGVPEPGWFEGELEGRRGIFPEGFVELLGPLR", "abundance fitness": "0.142 ± 0.08"}
{"variant": "SMGQARALMGLSAQLDEELDFREGDVITIIGVPEPGMFEGELEGRRGIFPEGFVELLGPLR", "abundance fitness": "-0.019 ± 0.075"}
{"variant": "SMGQARALMGLSAQLDEILDFREGDVITIIGVPEPGWFEGELEGRRGIFPEGFVELLGPLR", "abundance fitness": "-0.212 ± 0.082"}
{"variant": "SMGQARALMGLSAQLDEELDFREFDVITIIGVPEPGWFEGELEGRRGIFPEGFVELLGPLR", "abundance fitness": "-0.82 ± 0.1"}
{"variant": "SMGQARALMGLSAQLDEELDFREGDVITIIGVPEPGWFEGELEGRRGIFDEGFVELLGPLR", "abundance fitness": "-0.797 ± 0.13"}
{"variant": "SMGQARALMGLSAQLDEELDFREGDVITIIGVPEPGWFEGELEGRRGIFPEGFVELLGPLP", "abundance fitness": "0.123 ± 0.22"}
{"variant": "SMGQARALMGLSAQLDEELDFREGDVITIIGVPEPGWFEGELEGRRGIFPSGFVELLGPLR", "abundance fitness": "-0.053 ± 0.065"}
{"variant": "SMGQAQALMGLSAQLDEELDFREGDVITIIGVPEPGWFEGELEGRRGIFPEGFVELLGPLR", "abundance fitness": "-0.495 ± 0.18"}
{"variant": "SMGQARYLMGLSAQLDEELDFREGDVITIIGVPEPGWFEGELEGRRGIFPEGFVELLGPLR", "abundance fitness": "-0.93 ± 0.12"}
{"variant": "SMGQARALMGLSAQLDEELDFREGDVITIIGVPEPGWFEGELEGRRGIFLEGFVELLGPLR", "abundance fitness": "-0.655 ± 0.089"}
{"variant": "SMGQARALMGLSAQLDEELDFREGDVITIIGVPEPGWFEGELEGRRGIFHEGFVELLGPLR", "abundance fitness": "-0.333 ± 0.067"}
{"variant": "SMGQARALMGLSAQLDEELDFREGDVITIIGVPEPGWFEGELEGRRGIFPEGFVELVGPLR", "abundance fitness": "-0.24 ± 0.044"}
{"variant": "SMGQARALMGLSAQLDEELDFREGDVITIIGVPEPGWFEGELEGRRGIFAEGFVELLGPLR", "abundance fitness": "-0.736 ± 0.11"}
{"variant": "SMWQARALMGLSAQLDEELDFREGDVITIIGVPEPGWFEGELEGRRGIFPEGFVELLGPLR", "abundance fitness": "-0.227 ± 0.072"}
{"variant": "SMGQARALMGLSAQLDEELDFREGDVITIIGVPEPMWFEGELEGRRGIFPEGFVELLGPLR", "abundance fitness": "-0.584 ± 0.17"}
{"variant": "SMGQARALMGLSAQLDENLDFREGDVITIIGVPEPGWFEGELEGRRGIFPEGFVELLGPLR", "abundance fitness": "-0.236 ± 0.093"}
{"variant": "SMGQARALMGLSAQLDEELDFREGDVITIIGVPEPGWKEGELEGRRGIFPEGFVELLGPLR", "abundance fitness": "-0.503 ± 0.098"}
{"variant": "SMGQARALMGLSAQLDEELDFREGDVITIIGVPEPGWFEGWLEGRRGIFPEGFVELLGPLR", "abundance fitness": "-0.773 ± 0.13"}
{"variant": "SMGQAYALMGLSAQLDEELDFREGDVITIIGVPEPGWFEGELEGRRGIFPEGFVELLGPLR", "abundance fitness": "-0.471 ± 0.064"}
{"variant": "SMGQARALMGLSAQLDEELDFREGDVKTIIGVPEPGWFEGELEGRRGIFPEGFVELLGPLR", "abundance fitness": "-0.73 ± 0.13"}
{"variant": "SMNQARALMGLSAQLDEELDFREGDVITIIGVPEPGWFEGELEGRRGIFPEGFVELLGPLR", "abundance fitness": "0.245 ± 0.043"}
{"variant": "SMGQARALMGLSAQLDEELDFREGDVITIIGVPEPGWFEGELEGRRGIFPEGFVELMGPLR", "abundance fitness": "-0.251 ± 0.081"}
{"variant": "SMGQGRALMGLSAQLDEELDFREGDVITIIGVPEPGWFEGELEGRRGIFPEGFVELLGPLR", "abundance fitness": "-0.008 ± 0.045"}
{"variant": "SMGQARALMGLSAQLDEELDFREGDVIWIIGVPEPGWFEGELEGRRGIFPEGFVELLGPLR", "abundance fitness": "-0.809 ± 0.38"}
{"variant": "VMGQARALMGLSAQLDEELDFREGDVITIIGVPEPGWFEGELEGRRGIFPEGFVELLGPLR", "abundance fitness": "0.076 ± 0.11"}
{"variant": "SMGQARALMGLSAQLDEELDFREGDVITIIGVPEPGWFEGELEGGRGIFPEGFVELLGPLR", "abundance fitness": "-0.961 ± 0.27"}
{"variant": "SMGQARALMGLSAQLDEELDFREGDVITIIGVLEPGWFEGELEGRRGIFPEGFVELLGPLR", "abundance fitness": "-0.615 ± 0.19"}
{"variant": "SMGQARALMGLSAQLDEELDFREGDVITIIGVPEPGWFEGELEGRRGIFFEGFVELLGPLR", "abundance fitness": "-0.669 ± 0.09"}
